Where no end group is shown, it is not given here.
Assays:
RWPE-1 cells = test: Clonogenic assay; format: cell-based; details: benign prostate cells, 19-mer vector vs control; at least three experiments
Protocol: Figure 6 Selectivity of action of the Bag-1 peptide. A Amino acid sequence of the 19mer peptide and its deletion mutants. B GST pull-down assay performed incubating 400 µg of 22Rv.1 cell lysate and 25 µg of GST-fused deletion mutants of the 19mer peptide. After the pull-down experiment, Western blots were carried out with anti-GRP78/BiP and GST antibodies. C. Fluorescence polarization (FP) assays with a 10 nM FITC-labeled 7-mer Bag-1 peptide and dilutions of the GST-fused substrate binding domain of GRP78 in 60 µl of Tris-GSH buffer (50 mM Tris, 10 mM reduced glutathione and 0.1% BSA, pH 8.0). Triplicate samples were measured after 5 h of incubation at room temperature with an Infinite F-200 reader (Tecan) with excitation at 490 nm and emission at 535 nm. Binding constants were determined from three independent experiments using non-linear regression in Sigma Plot 10.0. D. Competition assays with a complex of 10 nM of FITC-labeled Bag-1 7-mer peptide and 0.75 mg/ml GST-fused GRP78 substrate binding domain was measured against a dilution series from 100 µM to 0.1 nM of wild-type Bag-1 7-mer peptide (filled line) or triple mutant peptide (dotted line) in 40 µl of Tris-GSH buffer. FITC-peptide and the FITC-peptide-protein complex were used as controls. Fluorescence polarization was determined as described above and IC50 values were determined in Sigma Plot. E. Clonogenic assay in 22Rv.1 cells with pcDNA3 based vectors coding for the N-terminal Bag-1 peptide (positive control), the 19mer and the 19mer mutant fragments as well as the empty expression vector (negative control). Cells were transfected with the indicated constructs and selected in medium containing neomycin. The colonies were stained and quantified. Shown as bar chats are the mean ± SEM of at least three independent experiments with three different plasmid preparations. (*p<0.05). F. In vivo luciferase refolding assay was performed in HEK-293 cells transfected at 70% confluency with 2 µg β-actin-fire fly luciferase construct, 3 µg pcDNA3 empty vector as control or pCMV6-GRP78, 6 µg pcDNA3.1-HA-19-mer or 19-mer mutant peptide and 0.5 µg Renilla luciferase construct to determine the transfection efficiency. Shown as bar charts is the mean of at least three different experiments ± SEM (*p<0.05). G. Clonogenic assay with the indicated malignant (LNCaP, DU145, PC3) and benign (BPH1, PNT2, RWPE1) prostate cell lines transfected with the vector control (black bars) and a vector expressing the 19-mer peptide (white bars). Shown are the mean ± SD of at least three different experiments performed with three different plasmid preparations (*p<0.05). H. Western blot analysis of cell lysates derived from the prostate cancer cells used for the colony forming assay with specific antibodies against GRP78 and β-actin.

22Rv.1 cells = test: ER-stress induced apoptosis markers, Western blot in 22Rv.1 cells; format: cell-based
Protocol: Unless otherwise stated, stable transfection was carried out in 22Rv.1 or BPH-1 cells with 10 µg of plasmid DNA using FuGene 6™ (Roche Diagnostics Mannheim, Germany) Stably transfected 22Rv.1 cells were selected with 0.8 mg/ml while BPH-1 cell clones were selected with 1.2 mg/ml G418. LNCaP, PC3, DU145, PNT-2 and RWPE-1 cell clones were selected with 1 mg/ml G418. Specific downregulation of GRP78 expression was achieved by transfecting siRNA-duplexes (GRP78∶5′-[…]-3′) twice in 72 h using HiPerfect™ (Qiagen Hilden, Germany). siRNA against GFP (5′-[…]-3′) was used as a control. Western blot analysis was performed as previously described.
Figure 3 The Bag-1 peptide modulates the UPR and sensitizes 22Rv.1 cells to ER-stress. A. UPR modulation upon Bag-1 peptide overexpression. Pooled clones of 22Rv.1 cells transfected with pcDNA3.1-HA-Bag-1 68 amino acid peptide or an empty expression vector were treated with 300 nM thapsigargin (TG) for the indicated time points. Cells were lysed and subjected to Western blot analysis using the indicated antibodies or phospho-specific antibodies. B. The Bag-1 peptide sensitizes 22Rv.1 cells to ER-stress induced apoptosis. Pooled clones of 22Rv.1 transfected with the Bag-1 peptide or the empty expression vector were treated with thapsigargin (TG) or glucose-starved (GS) for 24 h. The cells were lysed and subjected to Western blot analysis using anti-PARP and caspase 4 specific antibodies. Anti-HA antibody was used to detect the HA-Bag-1 peptide. […] C. […] Pooled clones of 22Rv.1 expressing HA-tagged Bag-1 peptide or an empty expression vector were transfected with GRP78/BiP siRNA or control GFP siRNA. The cells were lysed and Western blot was carried out with anti-PARP, anti-GRP78 and anti-HA antibodies. β-actin antibody was used to determine the level of protein loaded on the gel.
Supplementary file pone.0045690.s005.tif: Figure S5 Knock-down of CHOP impairs the Bag-1 peptide-mediated increase in apoptosis. The action of the Bag-1 peptide is dependent on CHOP. Pooled clones of 22Rv.1 expressing an empty expression vector (lane 1 to 4) or an HA-tagged Bag-1 peptide (lane 5 to 8) were transfected with control GFP siRNA (lane 1–2 and 5–6) or CHOP siRNA (lane 3–4 and 7–8). After treatment with 300 nM thapsigargin (TG) for 24 h, cells were lysed and Western blot was carried out with anti-PARP, anti-CHOP and anti-HA antibodies. β-actin antibody was used to determine the level of protein loaded on the gel. (TIF) Click here for additional data file.
Supplementary file pone.0045690.s006.tif: Figure S6 Overexpression of the Bag-1 peptide increases Capase-7 cleavage and JNK expression. 22Rv.1 cells stably transfected with an empty vector control (lane 1–2) or a plasmid encoding an HA-tagged Bag-1 peptide (lane 3–4) were treated with 300 nM thapsigargin (TG) for 24 h and harvested for Western blot anaysis. Specific antibodies against JNK (Cell Signaling, Frankfurt am Main, Germany), cleaved Caspase-7 (Cell Signaling, Frankfurt am Main, Germany), HA (HAA.11 clone 16B12, Covance, Munich, Germany) or β-actin (Sigma, Steinheim, Germany) were used in the experiment. (TIF) Click here for additional data file.

Row | Molecule | RWPE-1 growth in clonogenic assay (RWPE-1 cells) | PARP cleavage, GFP siRNA control, no ER stress (22Rv.1 cells; 22Rv.1 cells expressing Bag-1 peptide vs vector, no ER stress) | PARP cleavage, GRP78/BiP knock-down (22Rv.1 cells; 22Rv.1 cells transfected with GRP78/BiP siRNA, Bag-1 peptide vs vector) | caspase 4 and PARP cleavage, no ER stress (22Rv.1 cells; 22Rv.1 cells, no stressor, vs vector control) | CHOP expression and PARP cleavage (22Rv.1 cells; 22Rv.1 cells, thapsigargin 300 nM 24 h, Bag-1 peptide vs vector control) | JNK expression and caspase 7 cleavage (22Rv.1 cells; 22Rv.1 cells, thapsigargin 300 nM 24 h, vs vector control) | PARP cleavage after CHOP siRNA knockdown (22Rv.1 cells; 22Rv.1 cells, thapsigargin 300 nM 24 h, both vector and peptide cell lines) | caspase 4 expression and PARP cleavage, with ER stress (22Rv.1 cells; 22Rv.1 cells, thapsigargin or glucose starvation 24 h, vs vector control)
1 | 19-mer: Bag-1L 202–220 (TPLSALGIQDGCRVMLIGK; not fully specified) | not growth inhibited |  |  |  |  |  |  | 
2 | Bag-1 peptide: internal sequence of 68 amino acids of Bag-1 (Bag1-L 202–269), HA-tagged, expressed from pcDNA3 (also: HA tag, end not given here) TPLSALGIQDGCRVMLIGKKNSPQEEVELKKLKHLEKSVEKIADQLEELNKELTGIQQGFLPKDLQAE |  | increase in the PARP cleavage even in the absence of ER stress | no difference in the cleavage pattern was further observed | both caspase 4 and PARP cleavage was increased | further enhanced in the cells expressing the Bag-1 peptide | enhanced expression of JNK and caspase 7 cleavage | PARP cleavage was reduced in both cells line | a tremendous increase in caspase 4 expression and PARP cleavage

Reference: PMC3462190, “A Peptidic Unconjugated GRP78/BiP Ligand Modulates the Unfolded Protein Response and Induces Prostate Cancer Cell Death” (PLoS ONE, 2012)
